Drawing on patent US20240091260A1, this text covers cell death of neuroblastoma cells (SK-N-SH) with CD8+ CAR T cells for one substance.

The test addresses PRAME … (ALY) peptide in complex with HLA-A*0201 (HLA-A2) (human). The test can be described thus: cell-based or functional assay.

“PRAME mTCRCAR (chimeric antigen receptor with an scFv from Pr20, IgG4 hinge, 4-1BB costimulatory and CD3zeta signaling domains), on human T cells” gave a cell death of neuroblastoma cells (SK-N-SH) with CD8+ CAR T cells at 24 hours of 98%.
